Test results: US20230212549A1 (3B PHARMACEUTICALS, published 2023)
Values belong to the binder of their own block, whether it stands above or below them. Numbered stars: 1 amine (or outer) side, 2 acyl side, 3 side chain; on linkers, the order of the positions; unused ones are H or OH. Bridge positions count the residues as written; N and C are the ends. Square brackets hold non-standard residues; d marks the D form. Primed or numbered codes have the meaning given here. * marks the point of attachment. tMeBn(DOTA-PP) = 1,3,5-trimethylbenzylidene, two thioethers to Cys, third CH2 bound to one N of piperazine whose other N bears DOTA, O=C(O)CN1CCN(CC(=O)O)CCN(CC(=O)N2CCN(Cc3cc(C[*:1])cc(C[*:2])c3)CC2)CCN(CC(=O)O)CC1; TBMB(SCH2CH2NH-DOTA) = O=C(O)CN1CCN(CC(=O)O)CCN(CC(=O)NCCSCc2cc(C[*:1])cc(C[*:2])c2)CCN(CC(=O)O)CC1; Ttds(6) = 1,13-Diamino-4,7,10-trioxatridecan-succinamic acid, O=C(CCC(=O)[*:2])NCCCOCCOCCOCCCN[*:1]; Ttds = 1,13-diamino-4,7,10-trioxatridecan-succinamic acid, O=C(CCC(=O)[*:2])NCCCOCCOCCOCCCN[*:1]; 3MeBn = 3-Methylbenzylidene (m-xylylene thioether bridge from α,α′-dibromo-m-xylene); Ttds(4) = spacer between chelator and peptide, O=C(CCC(=O)[*:2])NCCCOCCOCCOCCCN[*:1]; N4Ac = 6-Carboxy-1,4,8,11-tetraazaundecane, an N4-chelator, NCCNCC(CNCCN)C(=O)*; DOTA = O=C(O)CN1CCN(CC(=O)O)CCN(CC(=O)*)CCN(CC(=O)O)CC1; DTPA = O=C(O)CN(CCN(CC(=O)O)CC(=O)O)CCN(CC(=O)O)CC(=O)*; 3Lut = 3,5-lutidylidene (derived from 3,5-lutidine); nBu‑CAyl = n-butylaminocarbonyl, CCCCNC(=O)*; mXylylene = c1cc(C[*:1])cc(C[*:2])c1; PPAc = 4-Carboxymethyl piperazine; Nle = CCCC[C@H](N)C(=O)O; PEG6′ = not defined here; Hexanoyl = CCCCCC(=O)*; βAla = NCCC(=O)O; Sar = CNCC(=O)O

Assays:
[1] = biological target: T1, Human recombinant FAP captured on anti-FAP antibody (SPR) (human, UniProt Q12884 26-760); experiment: SPR (Biacore), rhFAP captured by anti-FAP antibody; pKD category A = >8.0
T1 construct: whole entry of human FAP named; also called rhFAP

[2] = biological target: T2, human fibroblast activating protein (FAP) on WI-38 fibroblasts (human, UniProt Q12884 1-760); experiment: competitive FACS on WI-38 cells vs 3 nM Cy5-labeled peptide; pIC50 category A = >8.0
T2 construct: FAP-expressing human WI-38 fibroblasts (ECACC)

[3] = biological target: T3, human fibroblast activation protein (FAP) on WI-38 fibroblasts (human, UniProt Q12884 1-760); experiment: competitive FACS, WI-38 cells, Cy5-labeled peptide as competitor; C = pIC50 6.1 to 7.0
T3 construct: FAP-expressing human WI-38 fibroblasts (ECACC)

[4] = biological target: T2, human fibroblast activating protein …; experiment: competitive FACS on WI-38 cells vs 3 nM Cy5-labeled peptide; pIC50 category C = 6.1-7.0
[5] = biological target: T1, Human recombinant FAP captured on …; experiment: SPR (Biacore), rhFAP captured by anti-FAP antibody; pKD category B = 7.1-8.0
[6] = biological target: T2, human fibroblast activating protein …; experiment: competitive FACS on WI-38 cells vs 3 nM Cy5-labeled peptide; pIC50 category B = 7.1-8.0
[7] = biological target: T4, Recombinant human FAP (R&D systems, #3715-SE) (human, UniProt Q12884 26-760); experiment: cell-based or functional assay
[8] = biological target: T4, Recombinant human FAP (R&D systems, …); experiment: SPR (Biacore T200), FAP captured on anti-FAP antibody, single cycle kinetics; B = pKD 7.1 to 8.0
[9] = biological target: T5, recombinant human PREP (R&D systems, #4308-SE) (human, UniProt P48147 1-710); experiment: cell-based or functional assay
T5 sequence: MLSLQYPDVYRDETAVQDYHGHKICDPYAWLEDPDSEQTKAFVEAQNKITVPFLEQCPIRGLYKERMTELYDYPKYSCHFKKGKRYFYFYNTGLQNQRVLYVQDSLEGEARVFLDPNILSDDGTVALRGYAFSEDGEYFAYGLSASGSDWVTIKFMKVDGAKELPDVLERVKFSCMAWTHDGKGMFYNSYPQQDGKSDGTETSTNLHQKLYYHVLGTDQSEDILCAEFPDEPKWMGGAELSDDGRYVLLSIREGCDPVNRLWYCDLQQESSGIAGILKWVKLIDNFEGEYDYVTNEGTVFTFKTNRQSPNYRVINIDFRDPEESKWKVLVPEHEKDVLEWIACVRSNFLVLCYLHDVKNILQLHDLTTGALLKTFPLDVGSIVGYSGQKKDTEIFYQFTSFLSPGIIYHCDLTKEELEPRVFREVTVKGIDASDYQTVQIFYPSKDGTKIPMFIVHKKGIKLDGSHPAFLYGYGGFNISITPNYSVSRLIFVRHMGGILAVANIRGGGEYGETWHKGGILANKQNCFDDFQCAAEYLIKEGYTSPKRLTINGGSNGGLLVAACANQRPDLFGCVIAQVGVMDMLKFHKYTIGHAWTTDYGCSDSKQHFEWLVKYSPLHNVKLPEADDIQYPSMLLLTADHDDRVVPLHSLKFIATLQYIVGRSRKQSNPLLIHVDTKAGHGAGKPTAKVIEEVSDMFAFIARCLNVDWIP

[10] = biological target: Recombinant human DPP4 (R&D systems, #9168-SE) (human, UniProt P27487 29-766); experiment: cell-based or functional assay
Sequence of Recombinant human DPP4 (R&D systems, #9168-SE) (P27487 29-766 limits assumed): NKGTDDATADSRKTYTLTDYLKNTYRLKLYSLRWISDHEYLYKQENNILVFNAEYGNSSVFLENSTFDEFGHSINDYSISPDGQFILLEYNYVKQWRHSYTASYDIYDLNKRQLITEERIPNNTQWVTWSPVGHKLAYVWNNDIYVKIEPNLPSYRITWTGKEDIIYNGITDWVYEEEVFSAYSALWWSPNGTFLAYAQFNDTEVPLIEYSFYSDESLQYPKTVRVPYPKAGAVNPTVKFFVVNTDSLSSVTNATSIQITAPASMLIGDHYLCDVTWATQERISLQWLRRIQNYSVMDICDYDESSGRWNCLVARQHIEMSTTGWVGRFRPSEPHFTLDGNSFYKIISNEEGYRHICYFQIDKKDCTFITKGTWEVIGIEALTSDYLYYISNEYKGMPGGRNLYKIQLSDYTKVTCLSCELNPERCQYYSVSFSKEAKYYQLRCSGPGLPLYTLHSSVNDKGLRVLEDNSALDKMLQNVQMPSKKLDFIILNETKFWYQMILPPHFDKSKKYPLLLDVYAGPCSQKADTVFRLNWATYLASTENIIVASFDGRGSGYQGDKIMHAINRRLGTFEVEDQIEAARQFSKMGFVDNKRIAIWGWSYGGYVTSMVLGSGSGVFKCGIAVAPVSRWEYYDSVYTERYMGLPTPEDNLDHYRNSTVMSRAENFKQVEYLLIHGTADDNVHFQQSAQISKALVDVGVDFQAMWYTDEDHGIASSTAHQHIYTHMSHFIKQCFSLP

pKD [1]: > 8 pkd
pIC50 [2]: > 8 pic50
Binder: {N4Ac-PPAc-Ttds(4)}-[Nle]CPPTEFC[βAla]-OH (linker 2-8 via 3MeBn, also called 3BP-4784) [N4Ac-PPAc-Ttds-Nle-[C(3MeBn)-PPTEFC]-Bal-OH]

pKD [1]: > 8 pkd
B1: nBu-CAyl-[Cys(tMeBn(DOTA-AET))-Nmg-Pro-Thr-Gln-Phe-Cys]-OH (peptide)
peptide: {nBu‑CAyl}-C[Sar]PTQFC-OH
modifications: linker 1-7 via TBMB(SCH2CH2NH-DOTA)
SMILES: CCCCNC(=O)N[C@H]1CSCc2cc(CSCCNC(=O)CN3CCN(CC(=O)O)CCN(CC(=O)O)CCN(CC(=O)O)CC3)cc(c2)CSC[C@@H](C(=O)O)NC(=O)[C@H](Cc2ccccc2)NC(=O)[C@H](CCC(N)=O)NC(=O)[C@H]([C@@H](C)O)NC(=O)[C@@H]2CCCN2C(=O)CN(C)C1=O
notes: also called 3BP-4607

pKD [1]: > 8 pkd
pIC50 [2]: > 8 pic50
Binder: {nBu‑CAyl}-CPPTEFC-OH (linker 1-7 via tMeBn(NOPO-AET), also called 3BP-4778) [nBu-CAyl-[C(tMeBn(NOPO-AET))-PPTEFC]-OH]

pIC50 [2]: > 8 pic50
Binder: {N4Ac-PPAc-Ttds(4)}-[Nle]CPPTEFCD-OH (linker 2-8 via 3MeBn, also called 3BP-4785) [N4Ac-PPAc-Ttds-Nle-[C(3MeBn)-PPTEFC]D-OH]

pIC50 [3]: 6.1 to 7 pic50
B2: Hex-[Cys(tMeBn(DOTA-PP))-Pro-Pro-Thr-Ala-Phe-Cys]-Asp-NH2 (peptide)
peptide: Hexanoyl-CPPTAFCD-NH2
modifications: linker 1-7 via tMeBn(DOTA-PP)
SMILES: CCCCCC(=O)N[C@H]1CSCc2cc(cc(CN3CCN(C(=O)CN4CCN(CC(=O)O)CCN(CC(=O)O)CCN(CC(=O)O)CC4)CC3)c2)CSC[C@@H](C(=O)N[C@@H](CC(=O)O)C(N)=O)NC(=O)[C@H](Cc2ccccc2)NC(=O)[C@H](C)NC(=O)[C@H]([C@@H](C)O)NC(=O)[C@@H]2CCCN2C(=O)[C@@H]2CCCN2C1=O
notes: also called 3BP-3739

pIC50 [3]: 6.1 to 7 pic50
B3: DTPA-Ttds-Nle-[Cys-(3MeBn)-Pro-Pro-Thr-Glu-Phe-Cys]-OH (peptide)
peptide: {DTPA}-[Ttds][Nle]CPPTEFC-OH
modifications: linker 3-9 via mXylylene
SMILES: CCCC[C@H](NC(=O)CCC(=O)NCCCOCCOCCOCCCNC(=O)CN(CCN(CCN(CC(=O)O)CC(=O)O)CC(=O)O)CC(=O)O)C(=O)N[C@H]1CSCc2cccc(c2)CSC[C@@H](C(=O)O)NC(=O)[C@H](Cc2ccccc2)NC(=O)[C@H](CCC(=O)O)NC(=O)[C@H]([C@@H](C)O)NC(=O)[C@@H]2CCCN2C(=O)[C@@H]2CCCN2C1=O
notes: also called 3BP-4229

pKD [1]: > 8 pkd
B4: nBu-CAyl-[Cys(tMeBn(DOTA-AET))-Nmg-Pro-Thr-Gln-Phe-Cys]-NH2 (peptide)
peptide: {nBu‑CAyl}-C[Sar]PTQFC-NH2
modifications: linker 1-7 via TBMB(SCH2CH2NH-DOTA)
SMILES: CCCCNC(=O)N[C@H]1CSCc2cc(CSCCNC(=O)CN3CCN(CC(=O)O)CCN(CC(=O)O)CCN(CC(=O)O)CC3)cc(c2)CSC[C@@H](C(N)=O)NC(=O)[C@H](Cc2ccccc2)NC(=O)[C@H](CCC(N)=O)NC(=O)[C@H]([C@@H](C)O)NC(=O)[C@@H]2CCCN2C(=O)CN(C)C1=O
notes: also called 3BP-4621

pIC50 [4]: 6.1 to 7 pic50
Binder: {N4Ac-PEG6′-βAla}-[Nle]CPPTEFC-OH (linker 2-8 via 3MeBn, also called 3BP-4779) [N4Ac-PEG6-Bal-Nle-[C(3MeBn)-PPTEFC]-OH]

pKD [5]: 7.1 to 8 pkd
pIC50 [6]: 7.1 to 8 pic50
Binder: {N4Ac-PEG6′}-[Nle]CPPTEFC-OH (linker 2-8 via 3Lut, also called 3BP-4773) [N4Ac-PEG6-Nle-[C(3Lut)-PPTEFC]-OH]

pKD [5]: 7.1 to 8 pkd
pIC50 [6]: 7.1 to 8 pic50
Binder: {N4Ac-PPAc-Ttds(4)}-[Nle]CPPTEFC-OH (linker 2-8 via 3Lut, also called 3BP-4775) [N4Ac-PPAc-Ttds-Nle-[C(3Lut)-PPTEFC]-OH]

pIC50 [3]: 6.1 to 7 pic50
B5: Hex-[Cys(tMeBn(DOTA-PP))-Pro-Gln-Phe-Pro-Thr-Cys]-Asp-NH2 (peptide)
peptide: Hexanoyl-CPQFPTCD-NH2
modifications: linker 1-7 via tMeBn(DOTA-PP)
SMILES: CCCCCC(=O)N[C@H]1CSCc2cc(cc(CN3CCN(C(=O)CN4CCN(CC(=O)O)CCN(CC(=O)O)CCN(CC(=O)O)CC4)CC3)c2)CSC[C@@H](C(=O)N[C@@H](CC(=O)O)C(N)=O)NC(=O)[C@H]([C@@H](C)O)NC(=O)[C@@H]2CCCN2C(=O)[C@H](Cc2ccccc2)NC(=O)[C@H](CCC(N)=O)NC(=O)[C@@H]2CCCN2C1=O
notes: also called 3BP-3857

pIC50 Category (Activity) [7]: ≤ 6 pIC50
pIC50 [3]: 6.1 to 7 pic50
Binder: N4Ac-[Ttds(6)]ECPPTEFC-OH (linker 3-9 via 3MeBn, also called 3BP-4233) [N4Ac-Ttds-Glu-[Cys-(3MeBn)-Pro-Pro-Thr-Glu-Phe-Cys]-OH]

pIC50 [2]: > 8 pic50
B6: nBu-CAyl-[C(tMeBn(NODAGA-AET))-PPTEFC]-OH (peptide)
peptide: CPPTEFC
modifications: N-term nBu-CAyl-; Cys1 and Cys7 thioether-bridged by tMeBn(NODAGA-AET); C-term -OH
notes: also called 3BP-4724

pKD [8]: 7.1 to 8 pkd
pIC50 (PREP) [9]: 6.2 pIC50
pIC50 (DPP4) [10]: < 6 pIC50
B7: DOTA-Ttds-Nle-[Cys(3MeBn)-Pro-Pro-Thr-Glu-Phe-Cys]-NH2 (peptide)
peptide: {DOTA}-[Ttds][Nle]CPPTEFC-NH2
modifications: linker 3-9 via mXylylene
SMILES: CCCC[C@H](NC(=O)CCC(=O)NCCCOCCOCCOCCCNC(=O)CN1CCN(CC(=O)O)CCN(CC(=O)O)CCN(CC(=O)O)CC1)C(=O)N[C@H]1CSCc2cccc(c2)CSC[C@@H](C(N)=O)NC(=O)[C@H](Cc2ccccc2)NC(=O)[C@H](CCC(=O)O)NC(=O)[C@H]([C@@H](C)O)NC(=O)[C@@H]2CCCN2C(=O)[C@@H]2CCCN2C1=O
notes: also called 3BP-3319
